Here are results for four molecules from patent publication US11098306B1, “Promoters and uses thereof” (priority 2018, dated 2021).

The test system of this data set is mCherry expression in E. coli. Put plainly: Bulk mCherry fluorescence of E. coli strains (plate reader, normalized to OD600) after induction with phenolics. Type of data set: cell-based. Particulars: for improvement of expression levels in comparison with PemrR: 5 mM vanillic acid; for improvement of expression levels in comparison with PemrR / improved gene expression in comparison with PemrR / fold change in comparison with PemrR: 24 h of induction; for increase in fluorescence / protein expression in comparison with native promoter PemrR (control strain RIF01): induced with 5 mM vanillin, 12 h after induction, 30° C.; for improved gene expression in comparison with PemrR: 1 mM coumaric acid; for fold change in comparison with PemrR: 5 mM coumaric acid. On the procedure:
Cell growth and bulk fluorescence measurements: For the fluorescence experiments, frozen stocks of the strains were used to inoculate 5 ml of LB medium containing 25 mg l^−1 chloramphenicol and incubated at 37° C. with an orbital shaking of 250 r.p.m. Overnight cultures were used to inoculate (0.1% volume/volume) an M9 salt medium containing 25 mg l^−1 chloramphenicol, 20 g l^−1 glucose, and 5 g l^−1 yeast extract. The M9 salt medium (Sigma-Aldrich) contains 6.78 g l^−1 Na2HPO4, 3 g l^−1 KH2PO4, 0.5 g l^−1 NaCl, 1 g l^−1 NH4Cl, 0.1 mM CaCl2), and 2 mM MgSO4. 200 μl cultures of each strain (in triplicates) were loaded into black 96-well plates (black polystyrene plates with flat pclear bottom from Greiner Bio-One) and covered with Breathe-Easier sealing membrane (Sigma).
The cultures were grown until mid-log phase at 37° C. and 250 rpm. The mid-log phase cells were induced with phenolics such as vanillin, coumaric acid, and vanillic acid at varying concentrations. The induced cells were incubated in a plate reader (Tecan Infinite 200 Pro) at 30° C. and a 3 mm shaking amplitude. The optical density of the cultures and the mCherry fluorescence was monitored at required intervals in the plate reader. Cell density was measured by monitoring the absorption of the cultures at 600 nm (OD600). Fluorescence was recorded using an excitation wavelength of 575±9 nm and an emission wavelength of 610±20 nm with a manual gain of 100 and a Z-position of 20,000 μm. Fluorescence readings are reported as normalized fluorescence given by the ratio of fluorescence of the cells to the OD600. The fold changes were reported as the ratio of fluorescence level of the strain with engineered promoter to the strain with the basal promoter.

In the case of `COc1cc(C(=O)O)ccc1O` [Vanillic acid, vanillic acid, reference compound], the “induction of the promoters (PemrR, Pvtac, Pvtrc, Pvtic) by the phenolic” value (strains RIF01-RIF04, effect emerged after 24 h) was “some level of induction”.

B1: Pvtic: engineered hybrid phenolic-inducible promoter, PemrR with spacer region of Ptic, SEQ ID NO:55 (nucleic acid)
DNA: GAATCATTTTTCTAAAACAATACATTTGACAATTAATCATCGCGGCTCGTATAATGATCGGCTGAAATTAATGAGGTCATACCCAAAT
modifications: expressed or natural sequence
As for B1, the “improvement of expression levels in comparison with PemrR” value (from here on “improvement of expression levels”) is 2.1 fold and the “increase in fluorescence / protein expression in comparison with native promoter PemrR (control strain RIF01)” value came to 1.5 fold.

B2: Pvtac: engineered hybrid phenolic-inducible promoter, PemrR with spacer region of Ptac, SEQ ID NO:53 (nucleic acid)
DNA: GAATCATTTTTCTAAAACAATACATTTGACAATTAATCATCGGCTCGTATAATGATCGGCTGAAATTAATGAGGTCATACCCAAAT
modifications: expressed or natural sequence
In the case of B2, the “improved gene expression in comparison with PemrR” value came to 10.4 fold, the “fold change in comparison with PemrR” value was 7.1 fold, the “improvement of expression levels” value was determined as 9.5 fold and the “increase in fluorescence / protein expression in comparison with native promoter PemrR (control strain RIF01)” value is listed as 4.6 fold.

B3: Pvtrc: engineered hybrid phenolic-inducible promoter, PemrR with spacer region of Ptrc, SEQ ID NO:54 (nucleic acid)
DNA: GAATCATTTTTCTAAAACAATACATTTGACAATTAATCATCCGGCTCGTATAATGATCGGCTGAAATTAATGAGGTCATACCCAAAT
modifications: expressed or natural sequence
B3: the “improved gene expression in comparison with PemrR” value is 8.5 fold, the “fold change in comparison with PemrR” value was determined as 6.4 fold, the “improvement of expression levels” value came out at 6.8 fold and the “increase in fluorescence / protein expression in comparison with native promoter PemrR (control strain RIF01)” value amounted to 3.0 fold.
